The target of experiment [1] is T1, 6xHis-tagged LC8 (DYNLL2) (human, UniProt Q96FJ2 1-89). Put plainly: fluorescence polarisation.
The target in experiment [2] is T1, 6xHis-tagged LC8 (DYNLL2). Put plainly: SPR. A general note: SPR reads the build-up and loss of mass on a sensor chip optically.
Target sequence in this assay (Q96FJ2 whole entry): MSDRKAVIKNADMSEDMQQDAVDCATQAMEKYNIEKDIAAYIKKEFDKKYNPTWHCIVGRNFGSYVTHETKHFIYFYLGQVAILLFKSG

The record followed here is paper doi:10.1101/2023.09.15.557927 (bioRxiv, 2023).

No end group written: not given here. *: point of attachment. FITC = O=C1OC2(c3ccc(O)cc3Oc3cc(O)ccc32)c2ccc(NC(=S)*)cc21

B1: FITC-labeled BMF peptide (FITC-TSQEDKATQTL) (peptide)
peptide: {FITC}-TSQEDKATQTL
In the case of B1, the binding result in experiment [1] is “binds”.

B2: OFD1 peptide (KESCNMETQTS) (peptide)
peptide: KESCNMETQTS
What is called Kd is the free concentration of one partner at which half of the binding sites on the other are occupied at equilibrium, for simple one-to-one binding. Take B2: the results for the Kd in experiment [1] and in experiment [2] were 12.8 µM and 12.5 ± 1.3 µM, respectively.
